Measurements as given in patent US5637476.

Target: T1, SfiI modification methylase (M.SfiI) (Streptomyces fimbriatus) (UniProt O52513)
T1 sequence: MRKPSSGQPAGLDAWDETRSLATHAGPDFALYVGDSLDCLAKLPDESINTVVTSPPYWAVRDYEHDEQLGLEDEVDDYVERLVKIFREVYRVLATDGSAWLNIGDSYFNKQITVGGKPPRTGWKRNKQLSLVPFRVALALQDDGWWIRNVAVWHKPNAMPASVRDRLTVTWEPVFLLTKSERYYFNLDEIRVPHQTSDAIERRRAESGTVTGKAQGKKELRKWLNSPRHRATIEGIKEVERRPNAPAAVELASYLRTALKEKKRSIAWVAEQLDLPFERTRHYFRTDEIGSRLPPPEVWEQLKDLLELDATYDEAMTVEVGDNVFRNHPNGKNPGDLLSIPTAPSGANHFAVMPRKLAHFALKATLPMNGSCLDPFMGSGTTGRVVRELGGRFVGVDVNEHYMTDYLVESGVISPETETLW
Experiment: inhibition
Details: protection from SfiI cleavage; 10 mM EDTA, 0.1 mM AdoMet, 37 C; 0.3M and 0.5M KCl fractions

Substance: T4 DNA
- activity: 2500 units/ml
